PMC6854716, “Redesigning N-glycosylation sites in a GH3 β-xylosidase improves the enzymatic efficiency” (Biotechnology for Biofuels, 2019)

What was measured:
[1] = system: T1, O=[N+]([O-])c1ccc(O[C@@H]2OC[C@@H](O)[C@H](O)[C@H]2O)cc1; experiment: purified protein; format: biochemical, Aspergillus nidulans; conditions: 0.05 M ammonium acetate pH 5.0, 60 °C, 1–20 mM substrate
T1 construct: homologous secreted expression in A. nidulans A773 (pEXPYR, glaA promoter, A. niger glucoamylase signal peptide); purified by DEAE and Superdex 200; N-glycosylated at N63, N340, N408, N419, N458, N621, N760

[2] = Michaelis-Menten kinetics, purified enzyme, pH 5.0, 60 °C; conditions: glycan lost; control: BxlBwt
[3] = far-UV CD secondary structure; conditions: glycan lost; control: BxlBwt
[4] = CD thermal melt, 20-100 °C; conditions: glycan lost; control: BxlBwt
[5] = western blot of crude extracellular extract, polyclonal anti-BxlB; conditions: glycan lost; control: BxlBwt

| Molecule | Km [1] | Vmax [1] | kcat [1] | kcat/Km [1] | enzymatic_activity, kcat_Km [2] | structure_or_conformation [3] | stability_or_folding, Tm [4] | expression_or_secretion [5] |
| --- | --- | --- | --- | --- | --- | --- | --- | --- |
| BxlB^wt (GH3 β-xylosidase BxlB) (Aspergillus nidulans FGSC A4; N340Q/N408Q/N419Q/N458Q/N621Q) | 9920 ± 1050 µM | 4.12 µmol/min/mg | 5.64 s⁻¹ | 570 M⁻¹ s⁻¹ |  |  |  |  |
| BxlB^wt (GH3 β-xylosidase BxlB) (Aspergillus nidulans FGSC A4; N340Q/N408Q/N419Q/N621Q/N760Q) | 2910 ± 180 µM | 21.9 µmol/min/mg | 30.1 s⁻¹ | 10300 M⁻¹ s⁻¹ |  |  |  |  |
| BxlB^wt (GH3 β-xylosidase BxlB) (Aspergillus nidulans FGSC A4; N340Q/N408Q/N419Q/N458Q/N621Q/N63Q/N760Q) | 2360 ± 110 µM | 10.1 µmol/min/mg | 13.9 s⁻¹ | 5870 M⁻¹ s⁻¹ |  |  |  |  |
| BxlB^wt (GH3 β-xylosidase BxlB) (Aspergillus nidulans FGSC A4; N340Q/N408Q/N419Q/N621Q) | 2490 ± 430 µM | 17.3 µmol/min/mg | 23.7 s⁻¹ | 9510 M⁻¹ s⁻¹ |  |  |  |  |
| BxlB^wt (GH3 β-xylosidase BxlB) (Aspergillus nidulans FGSC A4; N340Q/N408Q/N419Q/N621Q/N63Q/N760Q) | 2710 ± 210 µM | 6.08 µmol/min/mg | 3.71 s⁻¹ |  |  |  |  |  |
| BxlB^wt (GH3 β-xylosidase BxlB) (Aspergillus nidulans FGSC A4; N340Q/N408Q/N419Q/N621Q/N63Q) | 2810 ± 110 µM | 20.5 µmol/min/mg | 28 s⁻¹ | 9940 M⁻¹ s⁻¹ |  |  |  |  |
| BxlB^wt (GH3 β-xylosidase BxlB) (Aspergillus nidulans FGSC A4; N340Q/N408Q/N419Q/N458Q/N621Q/N63Q) | 3190 ± 220 µM | 3.42 µmol/min/mg | 4.37 s⁻¹ | 1270 M⁻¹ s⁻¹ |  |  |  |  |
| BxlB (GH3 β-xylosidase): BxlBN7 (protein) parent chain: MAVFKSWNLALLSSLFIPALCQSNYPDCTTGPLSELPICDTSLSPLERAKSLVSALTLEEKINNTGHEAAGSSRLGLPAYNWWNEALHGVAEKHGVSFEESGDFSYATSFPAPIVLGAAFNDALIRRVAEIISTEARAFSNSDHAGIDYWTPNVNPFKDPRWGRGQETPGEDPLHCSRYVKEFVGGLQGDDPEKPKVVATCKHLAAYDLEEWGGVSRFEFDAKVSAVDLLEYYLPPFKTCAVDASVGAFMCSYNALNGVPACADRYLLQTVLREHWGWEGPGHWVTGDCGAVERIQTYHHYVESGPEAAAAALNAGVDLDCGTWLPSYLGEAERQGLISNETLDAALTRLYTSLVQLGYFDPAEGQPLRSLGWDDVATSEAEELAKTVAIQGTVLLKNIDWTLPLKANGTLALIGPFINFTTELQSNYAGPAKHIPTMIEAAERLGYNVLTAPGTEVNSTSTDGFDDALAIAAEADALIFFGGIDNTVEEESLDRTRIDWPGNQEELILELAELGRPLTVVQFGGGQVDDSALLASAGVGAIVWAGYPSQAGGAGVFDVLTGKAAPAGRLPITQYPKSYVDEVPMTDMNLQPGTDNPGRTYRWYEDAVLPFGFGLHYTTFNVSWAKKAFGPYDAATLARGKNPSSNIVDTFSLAVTNTGDVASDYVALVFASAPELGAQPAPIKTLVGYSRASLIKPGETRKVDVEVTVAPLTRATEDGRVVLYPGEYTLLVDVNDEYPTAKFEIKGDVQVLEKFPLSGNDSD |  |  |  |  | decreases, 1.27 vs 6.34 | no change | decreases | decreases |
| BxlB (GH3 β-xylosidase): BxlBN5;7 (protein) parent chain: MAVFKSWNLALLSSLFIPALCQSNYPDCTTGPLSELPICDTSLSPLERAKSLVSALTLEEKINNTGHEAAGSSRLGLPAYNWWNEALHGVAEKHGVSFEESGDFSYATSFPAPIVLGAAFNDALIRRVAEIISTEARAFSNSDHAGIDYWTPNVNPFKDPRWGRGQETPGEDPLHCSRYVKEFVGGLQGDDPEKPKVVATCKHLAAYDLEEWGGVSRFEFDAKVSAVDLLEYYLPPFKTCAVDASVGAFMCSYNALNGVPACADRYLLQTVLREHWGWEGPGHWVTGDCGAVERIQTYHHYVESGPEAAAAALNAGVDLDCGTWLPSYLGEAERQGLISNETLDAALTRLYTSLVQLGYFDPAEGQPLRSLGWDDVATSEAEELAKTVAIQGTVLLKNIDWTLPLKANGTLALIGPFINFTTELQSNYAGPAKHIPTMIEAAERLGYNVLTAPGTEVNSTSTDGFDDALAIAAEADALIFFGGIDNTVEEESLDRTRIDWPGNQEELILELAELGRPLTVVQFGGGQVDDSALLASAGVGAIVWAGYPSQAGGAGVFDVLTGKAAPAGRLPITQYPKSYVDEVPMTDMNLQPGTDNPGRTYRWYEDAVLPFGFGLHYTTFNVSWAKKAFGPYDAATLARGKNPSSNIVDTFSLAVTNTGDVASDYVALVFASAPELGAQPAPIKTLVGYSRASLIKPGETRKVDVEVTVAPLTRATEDGRVVLYPGEYTLLVDVNDEYPTAKFEIKGDVQVLEKFPLSGNDSD |  |  |  |  | increases, 9.94 vs 6.34 | no change | decreases, 55.1 vs 63.8 | decreases |
| BxlB (GH3 β-xylosidase): BxlBnon-glyc (protein) parent chain: MAVFKSWNLALLSSLFIPALCQSNYPDCTTGPLSELPICDTSLSPLERAKSLVSALTLEEKINNTGHEAAGSSRLGLPAYNWWNEALHGVAEKHGVSFEESGDFSYATSFPAPIVLGAAFNDALIRRVAEIISTEARAFSNSDHAGIDYWTPNVNPFKDPRWGRGQETPGEDPLHCSRYVKEFVGGLQGDDPEKPKVVATCKHLAAYDLEEWGGVSRFEFDAKVSAVDLLEYYLPPFKTCAVDASVGAFMCSYNALNGVPACADRYLLQTVLREHWGWEGPGHWVTGDCGAVERIQTYHHYVESGPEAAAAALNAGVDLDCGTWLPSYLGEAERQGLISNETLDAALTRLYTSLVQLGYFDPAEGQPLRSLGWDDVATSEAEELAKTVAIQGTVLLKNIDWTLPLKANGTLALIGPFINFTTELQSNYAGPAKHIPTMIEAAERLGYNVLTAPGTEVNSTSTDGFDDALAIAAEADALIFFGGIDNTVEEESLDRTRIDWPGNQEELILELAELGRPLTVVQFGGGQVDDSALLASAGVGAIVWAGYPSQAGGAGVFDVLTGKAAPAGRLPITQYPKSYVDEVPMTDMNLQPGTDNPGRTYRWYEDAVLPFGFGLHYTTFNVSWAKKAFGPYDAATLARGKNPSSNIVDTFSLAVTNTGDVASDYVALVFASAPELGAQPAPIKTLVGYSRASLIKPGETRKVDVEVTVAPLTRATEDGRVVLYPGEYTLLVDVNDEYPTAKFEIKGDVQVLEKFPLSGNDSD |  |  |  |  | decreases, 5.87 vs 6.34, BxlBnon-glyc catalytic efficiency was reduced by 7% | no change |  | decreases |
| BxlB (GH3 β-xylosidase): BxlBN1;5 (protein) parent chain: MAVFKSWNLALLSSLFIPALCQSNYPDCTTGPLSELPICDTSLSPLERAKSLVSALTLEEKINNTGHEAAGSSRLGLPAYNWWNEALHGVAEKHGVSFEESGDFSYATSFPAPIVLGAAFNDALIRRVAEIISTEARAFSNSDHAGIDYWTPNVNPFKDPRWGRGQETPGEDPLHCSRYVKEFVGGLQGDDPEKPKVVATCKHLAAYDLEEWGGVSRFEFDAKVSAVDLLEYYLPPFKTCAVDASVGAFMCSYNALNGVPACADRYLLQTVLREHWGWEGPGHWVTGDCGAVERIQTYHHYVESGPEAAAAALNAGVDLDCGTWLPSYLGEAERQGLISNETLDAALTRLYTSLVQLGYFDPAEGQPLRSLGWDDVATSEAEELAKTVAIQGTVLLKNIDWTLPLKANGTLALIGPFINFTTELQSNYAGPAKHIPTMIEAAERLGYNVLTAPGTEVNSTSTDGFDDALAIAAEADALIFFGGIDNTVEEESLDRTRIDWPGNQEELILELAELGRPLTVVQFGGGQVDDSALLASAGVGAIVWAGYPSQAGGAGVFDVLTGKAAPAGRLPITQYPKSYVDEVPMTDMNLQPGTDNPGRTYRWYEDAVLPFGFGLHYTTFNVSWAKKAFGPYDAATLARGKNPSSNIVDTFSLAVTNTGDVASDYVALVFASAPELGAQPAPIKTLVGYSRASLIKPGETRKVDVEVTVAPLTRATEDGRVVLYPGEYTLLVDVNDEYPTAKFEIKGDVQVLEKFPLSGNDSD |  |  |  |  | increases, 10.33 vs 6.34 | no change | decreases, 61.1 vs 63.8 | decreases |
| BxlB (GH3 β-xylosidase): BxlBN1;7 (protein) parent chain: MAVFKSWNLALLSSLFIPALCQSNYPDCTTGPLSELPICDTSLSPLERAKSLVSALTLEEKINNTGHEAAGSSRLGLPAYNWWNEALHGVAEKHGVSFEESGDFSYATSFPAPIVLGAAFNDALIRRVAEIISTEARAFSNSDHAGIDYWTPNVNPFKDPRWGRGQETPGEDPLHCSRYVKEFVGGLQGDDPEKPKVVATCKHLAAYDLEEWGGVSRFEFDAKVSAVDLLEYYLPPFKTCAVDASVGAFMCSYNALNGVPACADRYLLQTVLREHWGWEGPGHWVTGDCGAVERIQTYHHYVESGPEAAAAALNAGVDLDCGTWLPSYLGEAERQGLISNETLDAALTRLYTSLVQLGYFDPAEGQPLRSLGWDDVATSEAEELAKTVAIQGTVLLKNIDWTLPLKANGTLALIGPFINFTTELQSNYAGPAKHIPTMIEAAERLGYNVLTAPGTEVNSTSTDGFDDALAIAAEADALIFFGGIDNTVEEESLDRTRIDWPGNQEELILELAELGRPLTVVQFGGGQVDDSALLASAGVGAIVWAGYPSQAGGAGVFDVLTGKAAPAGRLPITQYPKSYVDEVPMTDMNLQPGTDNPGRTYRWYEDAVLPFGFGLHYTTFNVSWAKKAFGPYDAATLARGKNPSSNIVDTFSLAVTNTGDVASDYVALVFASAPELGAQPAPIKTLVGYSRASLIKPGETRKVDVEVTVAPLTRATEDGRVVLYPGEYTLLVDVNDEYPTAKFEIKGDVQVLEKFPLSGNDSD |  |  |  |  | decreases, 0.57 vs 6.34 | no change | decreases | decreases |
